Molecular target: dCas9-GCN4 fusion protein of System 3 (dCas9 with 5 copies of GCN4 peptides, linker of 22 amino acids) (S. pyogenes) (UniProt Q99ZW2)
Experiment: cell-based or functional assay

GCN4 peptide antibody (scFv)-superfolder green fluorescent protein (sfGFP)-TET1CD fusion protein, sequence (Q8NFU7 1418-2136): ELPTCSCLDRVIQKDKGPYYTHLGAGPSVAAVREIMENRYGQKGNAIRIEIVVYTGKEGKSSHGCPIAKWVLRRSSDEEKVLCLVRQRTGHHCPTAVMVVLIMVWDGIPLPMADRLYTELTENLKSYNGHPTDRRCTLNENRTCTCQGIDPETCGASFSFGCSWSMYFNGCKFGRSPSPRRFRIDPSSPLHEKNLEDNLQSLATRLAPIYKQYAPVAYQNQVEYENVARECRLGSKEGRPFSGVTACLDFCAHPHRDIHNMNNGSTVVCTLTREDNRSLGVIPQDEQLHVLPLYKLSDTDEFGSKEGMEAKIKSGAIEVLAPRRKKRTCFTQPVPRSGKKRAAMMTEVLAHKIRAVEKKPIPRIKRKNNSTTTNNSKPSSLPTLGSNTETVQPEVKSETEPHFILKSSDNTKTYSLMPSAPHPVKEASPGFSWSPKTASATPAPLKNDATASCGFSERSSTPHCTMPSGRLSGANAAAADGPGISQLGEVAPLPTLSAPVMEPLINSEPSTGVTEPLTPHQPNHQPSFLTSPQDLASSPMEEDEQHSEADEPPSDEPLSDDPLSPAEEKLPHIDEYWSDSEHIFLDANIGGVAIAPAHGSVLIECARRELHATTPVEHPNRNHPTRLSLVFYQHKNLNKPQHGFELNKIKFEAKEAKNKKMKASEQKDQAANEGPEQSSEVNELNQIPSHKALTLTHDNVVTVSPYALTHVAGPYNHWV

- demethylation of the Gfap STAT3 site in ESCs (COBRA, standardized demethylation percentage): 43%
Substance: GCN4 peptide antibody (scFv)-superfolder green fluorescent protein (sfGFP)-TET1CD fusion protein (from UniProt Q8NFU7 1418-2136)

Source: patent publication US20180346932A1
